The subject of series [1] is HeLa Kyoto. Briefly: solubility in G1/S (NP-40 vs SDS abundance) (log2 ratio); higher = more soluble. The conditions noted are these: cell cycle stage: G1/S.
For series [2], the system named is HeLa Kyoto. Briefly: melting temperature (median over replicates), in situ; higher = more thermally stable.
Series [3] concerns HeLa Kyoto. Kind of series: thermal stability score vs G1/S (z-score of summed log2 fold changes over temperatures); higher = more thermally stable than in G1/S.
In series [4] the test system is HeLa Kyoto. Briefly: solubility change mitosis vs G1/S (difference of NP-40 vs SDS log2 ratios) (log2 ratio difference); higher = more soluble in mitosis.
Where [5] appears, read: cell cycle stage: early G1 (4.5 h after nocodazole release).
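Wherever melting temperature (median over replicates), in situ is given: HeLa Kyoto cells synchronized by double thymidine or nocodazole block, proteins quantified by TMT10plex mass spectrometry, three independent biological replicates.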
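Wherever solubility change mitosis vs G1/S (difference of NP-40 vs SDS log2 ratios) is given: synchronized HeLa Kyoto cells (double thymidine block for G1/S, nocodazole release for mitosis), protein amounts in NP-40 versus SDS lysates quantified by mass spectrometry, three biological replicates.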
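Wherever solubility in G1/S (NP-40 vs SDS abundance) is given: HeLa Kyoto cells arrested at G1/S by double thymidine block, proteins quantified by TMT10plex mass spectrometry in mild NP-40 versus SDS extracts, three biological replicates.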
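Wherever thermal stability score vs G1/S (z-score of summed log2 fold changes over temperatures) is given: synchronized HeLa Kyoto cells, proteins quantified by TMT10plex mass spectrometry, three biological replicates, mitosis taken 0.5 h after nocodazole release, G1/S directly after double thymidine block.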

With “MASPGCLLCVLGLLLCGAASLELSRPHGDTAKKPIIGILMQKCRNKVMKNYGRYYIAASYVKYLESAGARVVPVRLDLTEKDYEILFKSINGILFPGGSVDLRRSDYAKVAKIFYNLSIQSFDDGDYFPVWGTCLGFEELSLLISGECLLTATDTVDVAMPLNFTGGQLHSRMFQNFPTELLLSLAVEPLTANFHKWSLSVKNFTMNEKLKKFFNVLTTNTDGKIEFISTMEGYKYPVYGVQWHPEKAPYEWKNLDGISHAPNAVKTAFYLAEFFVNEARKNNHHFKSESEEEKALIYQFSPIYTGNISSFQQCYIFD [GGH]”, the “solubility in G1/S (log2)” value in series [1] amounted to 0.326. For the same sequence, the figures for the melting temperature in series [2] (cell cycle stage: G1/S) and in series [2] (cell cycle stage: mitosis) were 60.5 °C and 60 °C, respectively. Further, the thermal stability score in series [3] (setting [5]) is 0.878; in series [3] (cell cycle stage: mitosis), -0.77. Besides, the “solubility change mitosis (log2)” value in series [4] is -0.0381.

In the case of “MASPQLCRALVSAQWVAEALRAPRAGQPLQLLDASWYLPKLGRDARREFEERHIPGAAFFDIDQCSDRTSPYDHMLPGAEHFAEYAGRLGVGAATHVVIYDASDQGLYSAPRVWWMFRAFGHHAVSLLDGGLRHWLRQNLPLSSGKSQPAPAEFRAQLDPAFIKTYEDIKENLESRRFQVVDSRATGRFRGTEPEPRDGIEPGHIPGTVNIPFTDFLSQEGLEKSPEEIRHLFQEKKVDLSKPLVATCGSGVTACHVALGAYLCGKPDVPIYDGSWVEWYMRARPEDVISEGRGKTH [MPST]”, the “solubility in G1/S (log2)” value in series [1] was found to be 0.45. Moreover, the melting temperature was 50.1 °C in series [2] (cell cycle stage: G1/S) and 50.5 °C in series [2] (cell cycle stage: mitosis). For the same sequence, the thermal stability score in series [3] (setting [5]) came out at 3.35; in series [3] (cell cycle stage: mitosis), 0.97. Also, in series [4], the “solubility change mitosis (log2)” value is -0.0783.

Consider “MASQLQNRLRSALALVTGAGSGIGRAVSVRLAGEGATVAACDLDRAAAQETVRLLGGPGSKEGPPRGNHAAFQADVSEARAARCLLEQVQACFSRPPSVVVSCAGITQDEFLLHMSEDDWDKVIAVNLKGTFLVTQAAAQALVSNGCRGSIINISSIVGKVGNVGQTNYAASKAGVIGLTQTAARELGRHGIRCNSVLPGFIATPMTQKVPQKVVDKITEMIPMGHLGDPEDVADVVAFLASEDSGYITGTSVEVTGGLFM [HSD17B8]”, for which the “solubility in G1/S (log2)” value in series [1] was determined as 0.368. The melting temperature in series [2] (cell cycle stage: G1/S) turned out to be 55.3 °C; in series [2] (cell cycle stage: mitosis), 56.3 °C. Also, the thermal stability score in series [3] (setting [5]) was -0.337; in series [3] (cell cycle stage: mitosis) it was -1.5. Also, in series [4], the “solubility change mitosis (log2)” value is 0.119.

As for “MASRCWRWWGWSAWPRTRLPPAGSTPSFCHHFSTQEKTPQICVVGSGPAGFYTAQHLLKHPQAHVDIYEKQPVPFGLVRFGVAPDHPEVKNVINTFTQTAHSGRCAFWGNVEVGRDVTVPELREAYHAVVLSYGAEDHRALEIPGEELPGVCSARAFVGWYNGLPENQELEPDLSCDTAVILGQGNVALDVARILLTPPEHLERTDITKAALGVLRQSRVKTVWLVGRRGPLQVAFTIKELREMIQLPGARPILDPVDFLGLQDKIKEVPRPRKRLTELLLRTATEKPGPAEAARQASASRAWGLRFFRSPQQVLPSPDGRRAAGVRLAVTRLEGVDEATRAVPTGDMEDLPCGLVLSSIGYKSRPVDPSVPFDSKLGVIPNVEGRVMDVPGLYCSGWVKRGPTGVIATTMTDSFLTGQMLLQDLKAGLLPSGPRPGYAAIQALLSSRGVRPVSFSDWEKLDAEEVARGQGTGKPREKLVDPQEMLRLLGH [FDXR]”, the “solubility in G1/S (log2)” value in series [1] worked out at 0.349. The melting temperature in series [2] (cell cycle stage: G1/S) worked out at 51.7 °C; in series [2] (cell cycle stage: mitosis), 51.8 °C. The thermal stability score in series [3] (setting [5]) was 0.0282; in series [3] (cell cycle stage: mitosis) it was 0.706. Besides, the “solubility change mitosis (log2)” value in series [4] is -0.0461.

Turning to “MASRGRRPEHGGPPELFYDETEARKYVRNSRMIDIQTRMAGRALELLYLPENKPCYLLDIGCGTGLSGSYLSDEGHYWVGLDISPAMLDEAVDREIEGDLLLGDMGQGIPFKPGTFDGCISISAVQWLCNANKKSENPAKRLYCFFASLFSVLVRGSRAVLQLYPENSEQLELITTQATKAGFSGGMVVDYPNSAKAKKFYLCLFSGPSTFIPEGLSENQDEVEPRESVFTNERFPLRMSRRGMVRKSRAWVLEKKERHRRQGREVRPDTQYTGRKRKPRF [WBSCR22]”, in series [1], the “solubility in G1/S (log2)” value was -0.361. The melting temperature in series [2] (cell cycle stage: G1/S) and in series [2] (cell cycle stage: mitosis) was 52.9 °C each time. The figures for the thermal stability score in series [3] (setting [5]) and in series [3] (cell cycle stage: mitosis) were 1.09 and 0.578, respectively. The “solubility change mitosis (log2)” value in series [4] is 0.0973.

Values taken from the supplement of paper PMC5998384.
